Data on two molecules can be found in patent US20230203155A1 (ALMAC DISCOVERY, published 2023).

The target in test [1] is T1, human ROR1-hFc fusion protein (extracellular domain) (human).
T1 construct: Whole entry 'human ROR1-Fc (CHO)'; also called hROR1; huROR1-Fc
Description: SPR, ROR1-hFc on chip. Background: SPR reads the build-up and loss of mass on a sensor chip optically.
Description: (§1) Binding kinetics were determined using a Pioneer Surface Plasmon Resonance (SPR) instrument (SensiQ/Pall ForteBio). […] VNARs and VNAR-Fc molecules were tested at various concentrations and the Ka (M⁻¹s⁻¹), Kd (s⁻¹) and KD (nM) values were determined using QDat software (SensiQ/Pall ForteBio).

Test [2] has as its target T2, human ROR2-hFc fusion protein (extracellular domain) (human).
T2 construct: Whole entry 'human ROR2-Fc (CHO)'; also called hROR2
Description: SPR, ROR2-hFc on chip.

Test [3] addresses T1, human ROR1-hFc fusion protein …. Briefly: SPR, ROR1-hFc on chip. This is another data set of the same source.
Description: as §1
In test [4] the target is T2, human ROR2-hFc fusion protein …. Briefly: SPR, ROR2-hFc on chip. This is another data set of the same source.
Description: as §1
Binding kinetics were determined using a SPR (as previously described) or using Biolayer interferometry (K2 Octet instrument/Pall ForteBio). […] VNARs and VNAR-Fc molecules were tested at various concentrations and the Ka (M−1s−1), Kd (s−1) and KD (nM) values were determined using the Octet data analysis HT software (Pall ForteBio).
The target of test [5] is T3, mouse ROR1-Fc fusion protein (mouse).
T3 construct: Whole entry 'mouse ROR1-Fc (CHO)'; also called mROR1
T3 sequence (chain, as listed by the source limits assumed): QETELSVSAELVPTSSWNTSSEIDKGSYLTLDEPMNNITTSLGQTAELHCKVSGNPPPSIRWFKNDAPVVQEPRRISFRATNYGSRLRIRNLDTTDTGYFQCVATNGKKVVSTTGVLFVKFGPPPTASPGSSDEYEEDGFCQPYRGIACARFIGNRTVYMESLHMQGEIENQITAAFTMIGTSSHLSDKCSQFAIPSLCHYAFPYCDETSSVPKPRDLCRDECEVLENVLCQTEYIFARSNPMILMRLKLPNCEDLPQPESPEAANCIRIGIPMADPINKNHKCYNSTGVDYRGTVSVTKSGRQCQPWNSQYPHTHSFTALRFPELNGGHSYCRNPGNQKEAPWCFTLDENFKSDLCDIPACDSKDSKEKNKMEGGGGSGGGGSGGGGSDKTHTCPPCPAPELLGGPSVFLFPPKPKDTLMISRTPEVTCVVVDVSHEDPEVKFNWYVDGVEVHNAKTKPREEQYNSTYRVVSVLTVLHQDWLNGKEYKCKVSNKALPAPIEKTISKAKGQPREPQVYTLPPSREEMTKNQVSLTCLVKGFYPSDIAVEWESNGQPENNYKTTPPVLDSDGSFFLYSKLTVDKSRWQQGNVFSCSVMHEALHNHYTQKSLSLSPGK
Description: SPR, mouse ROR1 on chip.
Description: as §1

The target of test [6] is T4, human ROR1 on the surface of ROR1hi human cancer cell lines (human, UniProt Q01973 30-937).
T4 construct: whole, on cells; Cell line is named under assay; also called cell surface ROR1
Briefly: flow cytometry on A549 (ROR1hi) cells, PE-anti Myc tag Ab. (A flow cytometer gives signals particle by particle.)
Description: FIG. 9: Cell surface binding of VNAR (His₆Myc tag) molecules to A549 (ROR1^hi) lung cancer cells by flow cytometry.
Adherent human cancer cells were detached from tissue culture flasks by incubating with 0.1% EDTA/PBS solution at 37° C. for −10 minutes or until cells detached easily. Cells were re-suspended in 5 ml ice-cold PBS/2% FCS in 15 ml tubes and centrifuged at 1500 rpm for 5 mins at 4° C. Supernatant was removed and the cell pellet re-suspended in 1-2 ml of PBS/2% FCS. A cell count was performed using a Z1 Coulter Particle Counter (Beckman Coulter) and 5×10\hat{ }5 cells were aliquoted per test sample. Cells were incubated with 100 μl of either VNAR (His₆Myc tagged), VNAR-Fc molecules or ROR1 mAb and IgG controls for 1 hour on ice. Excess VNAR, VNAR-Fc or mAb was removed by adding 5 ml of ice-cold PBS/2% FCS, followed by centrifugation at 1500 rpm for 5 mins at 4° C. The supernatant was removed and a second wash performed by re-suspending the cell pellet in 1 ml of ice-cold PBS/2% FCS and adding a further 4 ml of ice-cold PBS/2% FCS. Samples were again centrifuged at 1500 rpm for 5 min at 4° C. Supernatant was removed and excess liquid removed by blotting the tubes on tissue paper. […] Cells were incubated with chosen secondary antibody for 30 min on ice. Cells were washed to remove excess antibody as described earlier. […]

Like-named read-outs stand apart in the source and are kept apart here.

T1 sequence (chain, as listed by the source limits assumed): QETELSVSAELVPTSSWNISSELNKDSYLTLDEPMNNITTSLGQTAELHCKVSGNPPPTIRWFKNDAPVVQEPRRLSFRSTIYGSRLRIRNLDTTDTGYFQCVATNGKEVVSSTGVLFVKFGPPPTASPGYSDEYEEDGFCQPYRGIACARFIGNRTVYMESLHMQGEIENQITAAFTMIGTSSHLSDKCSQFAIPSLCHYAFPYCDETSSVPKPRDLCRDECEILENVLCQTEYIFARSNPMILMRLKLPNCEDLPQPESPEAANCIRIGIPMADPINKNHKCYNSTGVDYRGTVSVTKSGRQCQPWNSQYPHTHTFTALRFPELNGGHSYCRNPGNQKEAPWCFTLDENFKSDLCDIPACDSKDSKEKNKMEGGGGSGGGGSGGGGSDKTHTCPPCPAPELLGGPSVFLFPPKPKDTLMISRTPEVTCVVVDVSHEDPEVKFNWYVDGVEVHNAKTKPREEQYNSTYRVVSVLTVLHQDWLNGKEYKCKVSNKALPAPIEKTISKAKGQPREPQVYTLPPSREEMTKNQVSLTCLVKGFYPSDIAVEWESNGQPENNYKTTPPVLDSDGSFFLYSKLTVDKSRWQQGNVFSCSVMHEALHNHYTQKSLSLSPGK
T2 sequence (chain, as listed by the source limits assumed): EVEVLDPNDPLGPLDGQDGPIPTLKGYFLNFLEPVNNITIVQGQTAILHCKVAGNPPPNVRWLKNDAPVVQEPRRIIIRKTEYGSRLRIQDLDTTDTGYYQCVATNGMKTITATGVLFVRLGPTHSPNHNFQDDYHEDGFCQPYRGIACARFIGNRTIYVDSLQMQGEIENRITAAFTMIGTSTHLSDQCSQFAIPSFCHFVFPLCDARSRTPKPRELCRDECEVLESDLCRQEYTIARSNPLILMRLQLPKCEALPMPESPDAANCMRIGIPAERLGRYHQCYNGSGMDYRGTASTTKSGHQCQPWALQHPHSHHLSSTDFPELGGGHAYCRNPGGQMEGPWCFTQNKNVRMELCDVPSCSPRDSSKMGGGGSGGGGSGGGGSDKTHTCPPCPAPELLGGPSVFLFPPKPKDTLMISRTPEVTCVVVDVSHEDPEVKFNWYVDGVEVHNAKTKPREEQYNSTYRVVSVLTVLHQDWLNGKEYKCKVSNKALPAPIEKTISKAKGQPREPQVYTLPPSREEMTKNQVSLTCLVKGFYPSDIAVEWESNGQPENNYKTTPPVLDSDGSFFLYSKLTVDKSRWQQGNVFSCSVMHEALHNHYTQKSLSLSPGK

B1: P3A1 dimer, no tag (VNAR)
chain: TRVDQTPRTATKETGESLTINCVLTDTSYGLYSTSWFRKNPGTTDWERMSIGGRYVESVNKGAKSFSLRIKDLTVADSATYYCKAREARHPWLRQWYDGAGTVLTVNGGGGSGGGGSGGGGSGGGGSGGGGSTRVDQTPRTATKETGESLTINCVLTDTSYGLYSTSWFRKNPGTTDWERMSIGGRYVESVNKGAKSFSLRIKDLTVADSATYYCKAREARHPWLRQWYDGAGTVLTVN
Regarding B1, in test [1], the Kd (in general, the free concentration of one partner at which half of the binding sites on the other are occupied at equilibrium, for simple one-to-one binding) stood at 0.36 nM; the koff – broadly, the rate constant with which the complex falls apart – was 0.000598 s⁻¹; the kon (commonly a measure of how fast the partners come together) stood at 1.67e+06 M⁻¹ s⁻¹. For the same molecule, the binding result in test [2] is “no binding”.

B2: E7 his myc (VNAR)
VNAR: TRVDQTPRTATKETGESLTINCVVTGAKYGLAATYWYRKNPGSSNQERISISGRYVESVNKRTMSFSLRIKDLTVADSATYYCKAYPWAMWGQWYDGAGTVLTVNQ
notes: VNAR
Turning to B2, the Kd in test [3] came out at 11.1 nM; in test [5] it was 1.4 nM. In addition, the koff in test [3] amounted to 0.0118 s⁻¹; in test [5], 0.002 s⁻¹. Moreover, the kon in test [3] came out at 1.11e+06 M⁻¹ s⁻¹; in test [5], 1.41e+06 M⁻¹ s⁻¹. The binding result in test [4] was “no binding”; in test [6], “binds”.
